The target of this experiment is recombinant XIAP, I. scapularis (as used in the native gel, the plate-coated ELISA and the ubiquitylation assay) (I. scapularis). As to the kind of experiment: ELISA; 0.2 μg of XIAP coated on the plate (0.5 M carbonate-bicarbonate pH 9.5); increasing concentrations of Bendless, room temperature 1 hour; detected with α-UbcH13.

With “recombinant Bendless, I. scapularis (enzyme)”, the concentration at saturation of binding came to 9.1 µM.

The values above are taken from PMC5316886.
